Assay results as given in paper doi:10.1101/2022.06.26.497666 (bioRxiv, 2022).

T1: NLRP1 (wild-type full-length human NLRP1) (human, UniProt Q9C000-1)
T1 sequence: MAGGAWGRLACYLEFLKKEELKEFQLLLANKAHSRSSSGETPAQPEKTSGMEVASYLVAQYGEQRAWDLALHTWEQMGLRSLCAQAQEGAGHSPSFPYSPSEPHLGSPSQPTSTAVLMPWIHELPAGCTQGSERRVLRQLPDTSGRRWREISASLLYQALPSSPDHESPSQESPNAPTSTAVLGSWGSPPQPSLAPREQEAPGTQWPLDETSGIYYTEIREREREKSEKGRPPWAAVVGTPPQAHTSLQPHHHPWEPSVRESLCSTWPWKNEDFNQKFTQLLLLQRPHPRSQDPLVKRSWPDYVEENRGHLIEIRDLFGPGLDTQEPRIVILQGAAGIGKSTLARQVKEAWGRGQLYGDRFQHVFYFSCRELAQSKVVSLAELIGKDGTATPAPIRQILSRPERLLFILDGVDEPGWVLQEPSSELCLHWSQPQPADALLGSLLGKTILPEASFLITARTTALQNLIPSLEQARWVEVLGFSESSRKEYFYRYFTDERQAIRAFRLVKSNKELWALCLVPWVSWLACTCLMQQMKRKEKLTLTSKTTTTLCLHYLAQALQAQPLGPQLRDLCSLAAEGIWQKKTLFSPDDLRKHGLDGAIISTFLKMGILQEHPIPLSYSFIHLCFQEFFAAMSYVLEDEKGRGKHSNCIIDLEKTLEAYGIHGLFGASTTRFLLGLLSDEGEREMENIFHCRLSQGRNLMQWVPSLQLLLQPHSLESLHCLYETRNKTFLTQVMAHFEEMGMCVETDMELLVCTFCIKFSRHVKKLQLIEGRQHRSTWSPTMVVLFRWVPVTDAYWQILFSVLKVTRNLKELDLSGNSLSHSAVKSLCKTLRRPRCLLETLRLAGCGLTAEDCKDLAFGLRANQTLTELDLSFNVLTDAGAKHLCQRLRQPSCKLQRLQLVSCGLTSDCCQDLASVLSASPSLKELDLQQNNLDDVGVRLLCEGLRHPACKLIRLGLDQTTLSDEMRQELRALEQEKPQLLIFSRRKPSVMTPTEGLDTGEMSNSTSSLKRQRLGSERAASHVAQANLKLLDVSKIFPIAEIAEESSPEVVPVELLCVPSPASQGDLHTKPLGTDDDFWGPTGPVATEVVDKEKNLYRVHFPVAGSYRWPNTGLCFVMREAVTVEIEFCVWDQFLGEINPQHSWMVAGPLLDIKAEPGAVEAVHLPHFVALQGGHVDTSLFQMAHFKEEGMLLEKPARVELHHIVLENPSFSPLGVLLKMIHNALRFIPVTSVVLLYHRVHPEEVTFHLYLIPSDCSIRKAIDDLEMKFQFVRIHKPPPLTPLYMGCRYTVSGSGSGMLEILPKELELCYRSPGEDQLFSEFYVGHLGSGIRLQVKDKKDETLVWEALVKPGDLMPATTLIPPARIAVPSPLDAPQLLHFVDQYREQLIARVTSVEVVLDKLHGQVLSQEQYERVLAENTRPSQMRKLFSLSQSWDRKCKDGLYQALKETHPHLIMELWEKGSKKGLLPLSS


How the values were obtained:
[1] = biological target: T1, NLRP1 (wild-type full-length human …); assay: co-IP
[2] = biological target: the molecule itself; assay: SEC + other: negative-stain EM

binding result [1]	Binder	binding result [2]
binds	CARD8-T60 isoform (full-length) (natural protein) MEKKECPEKSSSSEEELPRRDSGSSRNIDASKLIRLQGSRKLLVDNSIRELQYTKTGIFFQAEACVTNDTVYRELPCVSETLCDISHFFQEDDETEAEPLLFRAVPECQLSGGDIPSVSEEQESSEGQDSGDICSEENQIVSSYASKVCFEIEEDYKNRQFLGPEGNVDVELIDKSTNRYSVWFPTAGWYLWSATGLGFLVRDEVTVTIAFGSWSQHLALDLQHHEQWLVGGPLFDVTAEPEEAVAEIHLPHFISLQAGEVDVSWFLVAHFKNEGMVLEHPARVEPFYAVLESPSFSLMGILLRIASGTRLSIPITSNTLIYYHPHPEDIKFHLYLVPSDALLTKAIDDEEDRFHGVRLQTSPPMEPLNFGSSYIVSNSANLKVMPKELKLSYRSPGEIQHFSKFYAGQMKEPIQLEITEKRHGTLVWDTEVKPVDLQLVAASAPPPFSGAAFVKENHRQLQARMGDLKGVLDDLQDNEVLTENEKELVEQEKTRQSKNEALLSMVEKKGDLALDVLFRSISERDPYLVSYLRQQNL	
	MBP-NLRP1 NACHT-LRR F787_R843del mutant (domain or fragment) GRPPWAAVVGTPPQAHTSLQPHHHPWEPSVRESLCSTWPWKNEDFNQKFTQLLLLQRPHPRSQDPLVKRSWPDYVEENRGHLIEIRDLFGPGLDTQEPRIVILQGAAGIGKSTLARQVKEAWGRGQLYGDRFQHVFYFSCRELAQSKVVSLAELIGKDGTATPAPIRQILSRPERLLFILDGVDEPGWVLQEPSSELCLHWSQPQPADALLGSLLGKTILPEASFLITARTTALQNLIPSLEQARWVEVLGFSESSRKEYFYRYFTDERQAIRAFRLVKSNKELWALCLVPWVSWLACTCLMQQMKRKEKLTLTSKTTTTLCLHYLAQALQAQPLGPQLRDLCSLAAEGIWQKKTLFSPDDLRKHGLDGAIISTFLKMGILQEHPIPLSYSFIHLCFQEFFAAMSYVLEDEKGRGKHSNCIIDLEKTLEAYGIHGLFGASTTRFLLGLLSDEGEREMENIFHCRLSQGRNLMQWVPSLQLLLQPHSLESLHCLYETRNKTFLTQVMAHFEEMGMCVETDMELLVCTFCIKFSRHVKKLQLIEGRQHRSTWSPTMVVLLAGCGLTAEDCKDLAFGLRANQTLTELDLSFNVLTDAGAKHLCQRLRQPSCKLQRLQLVSCGLTSDCCQDLASVLSASPSLKELDLQQNNLDDVGVRLLCEGLRHPACKLIRLGLDQTTLSDEMRQELRALEQEKPQLLIFSRRKPSVMTP	binds
	MBP-NLRP1 NACHT-LRR R726W mutant (domain or fragment) GRPPWAAVVGTPPQAHTSLQPHHHPWEPSVRESLCSTWPWKNEDFNQKFTQLLLLQRPHPRSQDPLVKRSWPDYVEENRGHLIEIRDLFGPGLDTQEPRIVILQGAAGIGKSTLARQVKEAWGRGQLYGDRFQHVFYFSCRELAQSKVVSLAELIGKDGTATPAPIRQILSRPERLLFILDGVDEPGWVLQEPSSELCLHWSQPQPADALLGSLLGKTILPEASFLITARTTALQNLIPSLEQARWVEVLGFSESSRKEYFYRYFTDERQAIRAFRLVKSNKELWALCLVPWVSWLACTCLMQQMKRKEKLTLTSKTTTTLCLHYLAQALQAQPLGPQLRDLCSLAAEGIWQKKTLFSPDDLRKHGLDGAIISTFLKMGILQEHPIPLSYSFIHLCFQEFFAAMSYVLEDEKGRGKHSNCIIDLEKTLEAYGIHGLFGASTTRFLLGLLSDEGEREMENIFHCRLSQGRNLMQWVPSLQLLLQPHSLESLHCLYETWNKTFLTQVMAHFEEMGMCVETDMELLVCTFCIKFSRHVKKLQLIEGRQHRSTWSPTMVVLFRWVPVTDAYWQILFSVLKVTRNLKELDLSGNSLSHSAVKSLCKTLRRPRCLLETLRLAGCGLTAEDCKDLAFGLRANQTLTELDLSFNVLTDAGAKHLCQRLRQPSCKLQRLQLVSCGLTSDCCQDLASVLSASPSLKELDLQQNNLDDVGVRLLCEGLRHPACKLIRLGLDQTTLSDEMRQELRALEQEKPQLLIFSRRKPSVMTP	binds
